Measured values as given in US20250171549A1 (Amgen, published 2025).

T1: human CCR4 (human, UniProt P51679 1-360)
T1 construct: Transiently expressed on HEK293T; also called hCCR4
T1 sequence: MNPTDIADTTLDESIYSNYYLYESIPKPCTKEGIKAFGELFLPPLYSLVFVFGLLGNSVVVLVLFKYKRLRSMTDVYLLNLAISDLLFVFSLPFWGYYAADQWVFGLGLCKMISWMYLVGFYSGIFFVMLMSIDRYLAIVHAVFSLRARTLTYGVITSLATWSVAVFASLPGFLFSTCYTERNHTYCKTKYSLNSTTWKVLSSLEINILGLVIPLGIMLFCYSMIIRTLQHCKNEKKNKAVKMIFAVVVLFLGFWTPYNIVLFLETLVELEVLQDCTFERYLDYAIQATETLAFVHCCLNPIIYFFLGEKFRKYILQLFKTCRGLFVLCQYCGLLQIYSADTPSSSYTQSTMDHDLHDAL

T2: murine CCR8 (murine, UniProt P56484 1-353)
T2 construct: Transiently expressed on HEK293T; also called Mouse CCR8; mCCR8
T2 sequence: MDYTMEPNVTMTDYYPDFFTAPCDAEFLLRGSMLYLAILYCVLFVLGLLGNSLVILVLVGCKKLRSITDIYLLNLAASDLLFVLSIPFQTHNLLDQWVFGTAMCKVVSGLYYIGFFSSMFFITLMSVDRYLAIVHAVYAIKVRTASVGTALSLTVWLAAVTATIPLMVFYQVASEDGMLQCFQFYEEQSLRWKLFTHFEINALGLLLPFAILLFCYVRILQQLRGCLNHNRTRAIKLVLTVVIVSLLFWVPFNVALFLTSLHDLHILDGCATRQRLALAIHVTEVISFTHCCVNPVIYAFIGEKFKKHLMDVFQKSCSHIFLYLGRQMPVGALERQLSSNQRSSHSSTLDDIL

T3: rat CCR8 (rat, UniProt P56484 1-353 (mouse entry))
T3 construct: Transiently expressed on HEK293T
T3 chain: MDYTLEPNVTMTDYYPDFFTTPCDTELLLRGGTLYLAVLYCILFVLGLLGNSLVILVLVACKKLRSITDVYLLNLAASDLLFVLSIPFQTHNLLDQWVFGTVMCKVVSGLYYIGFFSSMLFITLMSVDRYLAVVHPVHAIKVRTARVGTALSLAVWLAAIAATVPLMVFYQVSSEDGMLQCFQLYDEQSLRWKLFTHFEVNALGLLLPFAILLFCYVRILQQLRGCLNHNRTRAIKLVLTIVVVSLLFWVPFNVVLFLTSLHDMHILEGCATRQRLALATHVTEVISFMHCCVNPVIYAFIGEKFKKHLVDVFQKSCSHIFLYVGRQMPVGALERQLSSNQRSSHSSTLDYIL

B1: Antibody 2 IgG2 (antibody, V domains shown)
VH: QVQLVESGGGVVQPGRSLRLSCAASGFTFSNYGMHWVRQAPGKGLEWVAVISYDGSNKFYADSVKGRFTISRDNSKKTLYLQMSSLRVEDTAVYYCARAGGIGRFDYWGQGTLVTVSS
VL: DFVMTQTPLSLSVTPGQPASISCKYSQSLLHSDGKTYLFWYLQKPGQPPHLLIYEVSNRFSGVPDRFSGSGSGTDFTLKISRVEAEDVGLYYCMQTLKLPLTFGGGTKVEINR
notes: IgG2; tested as hybridoma supernatant
B2: Antibody 1 IgG2 (antibody)
heavy: EVQLVESGGGLVKPGGSLRLSCAASGFTFSNARMGWVRQAPGKGLEWVGRIKSKTEGGTRDYAAPVKGRFTISRDDSKNTLYLQMNSLKTEDTAVYYCTSYSGVWGQGTMVTVSSASTKGPSVFPLAPCSRSTSESTAALGCLVKDYFPEPVTVSWNSGALTSGVHTFPAVLQSSGLYSLSSVVTVPSSNFGTQTYTCNVDHKPSNTKVDKTVERKCCVECPPCPAPPVAGPSVFLFPPKPKDTLMISRTPEVTCVVVDVSHEDPEVQFNWYVDGVEVHNAKTKPREEQFNSTFRVVSVLTVVHQDWLNGKEYKCKVSNKGLPAPIEKTISKTKGQPREPQVYTLPPSREEMTKNQVSLTCLVKGFYPSDIAVEWESNGQPENNYKTTPPMLDSDGSFFLYSKLTVDKSRWQQGNVFSCSVMHEALHNHYTQKSLSLSPGK
light: not shown
notes: as for B1

Assays:
human CCR4 = biological target: T1, human CCR4; experiment: flow cytometry, HEK293T transfectants
Description: (§1) Transfected cells were used to assess an antibody's binding specificity using flow cytometry on host Human Embryonic Kidney (HEK) 293T cells. Proteins were expressed on HEK 293T cells by transfection using human CCR8 (SEQ ID NO: 21), human CCR8 with an A27G point mutation (SEQ ID NO: 23), murine CCR8 (SEQ ID NO: 24), rat CCR8 (SEQ ID NO: 25), human CCR4 (SEQ ID NO: 26), or control expression vectors, Gibco™ Opti-MEM® media (Gibco), and 293Fectin™ reagent (Invitrogen) according to the manufacturer's instructions. Human T-cell lymphoma (HuT78) cell lines were also used to determine specificity to endogenously expressed CCR8.
Transfected HEK293T cells (24 hours after transfection) or HuT78 cells were resuspended in FACS buffer (PBS+2% Fetal Bovine Serum) and added to a 96-well plate. […]
Alexa Fluor 647 goat anti-human or rat IgG (Fcγ fragment specific) secondary antibodies (Jackson ImmunoResearch) made up in FACS buffer at 5.0 μg/mL were added to each well, and cells were resuspended and incubated for 15 minutes at 4° C. […] Samples were resuspended in FACS buffer and read on either IntelliCyt® iQue or BD Accuri™ Flow Cytometer with an Intellicyt HyperCyt autosampler.

human CCR8 = biological target: T4, human CCR8 (human, UniProt P51685 1-355); experiment: KinExA, HUT78 cells
T4 construct: Transiently expressed on HEK 293T cells, or endogenous on HuT78/HUT78 cells and primary human regulatory T cells; also called hCCR8; human C-C chemokine receptor type 8
Experimental: The cells were counted using a hemocytometer. The HUT78 cells were titrated and incubated with two different constant antibody concentrations, one at 48 pM and the other at 2 nM, in HUT media (RPMI 1640, 10% FBS, 10 mM HEPES, 2 mM L-Glut, 1 mM Sod. Pyr, 0.1 mM NEAA, 50 uM 2-ME) with 0.05% Sodium Azide. For the high [Ab] equilibrium set, HUT78 cells were titrated from 62.5 million per milliliter concentration 1:2 for 10 points in eppendorf tubes and equilibrated with 2 nM antibody in a total volume of 400 μl. For the low [Ab] equilibrium set, HUT78 cells were titrated from 3.89 million per milliliter concentration, 1:2 for 10 points in 50 ml Fulcon tubes and equilibrated with 48 pM antibody in a total volume of 15.5 mL.
For each equilibrium sample the free [Ab] was detected by running the equilibrium samples through the coated beads followed by a quick wash with the running buffer (1×PBS pH7.4+1% BSA+0.05% Sodium Azide). The secondary detection antibody (goat anti-huIgG (H+L) Alexa 647) was run through the flow cell at 680 ng/ml and 500 μL per run. The KinExA voltage output signal was used in KinExA software to calculate the Kd. […]
Cells in media were serially diluted and incubated with 48 pM or 2 nM active binding site concentration of antibody in media in the presence of 0.05% NaN3, and allowed to equilibrate. The free mAb left in the supernatant was measured as described above. […]

murine CCR8 = biological target: T2, murine CCR8; experiment: flow cytometry, HEK293T transfectants, supernatant 5 ug/mL
Description: as §1
(§2) Transfected HEK293T cells (24 hours after transfection) or HuT78 cells were resuspended in FACS buffer (PBS+2% Fetal Bovine Serum) and added to a 96-well plate. Hybridoma supernatant samples containing control antibodies 433H (BD Biosciences) or L263G8 (BioLegend), Antibody 1 IgG2, or Antibody 2 IgG2 were added at a final concentration of 5.0 μg/mL, cells were resuspended and incubated for 1 hour at 4° C. Plates were washed twice with FACS buffer, centrifuged to pellet the cells, and supernatant was removed and resuspended in FACS buffer to remove unbound antibodies.
(§3) Alexa Fluor 647 goat anti-human or rat IgG (Fcγ fragment specific) secondary antibodies (Jackson ImmunoResearch) made up in FACS buffer at 5.0 μg/mL were added to each well, and cells were resuspended and incubated for 15 minutes at 4° C. Plates were washed twice with FACS buffer, centrifuged to pellet the cells, and supernatant was removed and resuspended in FACS buffer to remove unbound secondary antibodies. Samples were resuspended in FACS buffer and read on either IntelliCyt® iQue or BD Accuri™ Flow Cytometer with an Intellicyt HyperCyt autosampler.

[1] = biological target: T5, human CCR8 with an A27G point mutation (human, UniProt P51685 1-355); experiment: as above
T5 construct: Transiently expressed on HEK293T; also called Human CCR8 [A27G]; humanCCR8[A27G]
Description: as §1, §2, §3

rat CCR8 = biological target: T3, rat CCR8; experiment: as above
Description: as §1, §2, §3

T4 sequence (P51685 whole entry): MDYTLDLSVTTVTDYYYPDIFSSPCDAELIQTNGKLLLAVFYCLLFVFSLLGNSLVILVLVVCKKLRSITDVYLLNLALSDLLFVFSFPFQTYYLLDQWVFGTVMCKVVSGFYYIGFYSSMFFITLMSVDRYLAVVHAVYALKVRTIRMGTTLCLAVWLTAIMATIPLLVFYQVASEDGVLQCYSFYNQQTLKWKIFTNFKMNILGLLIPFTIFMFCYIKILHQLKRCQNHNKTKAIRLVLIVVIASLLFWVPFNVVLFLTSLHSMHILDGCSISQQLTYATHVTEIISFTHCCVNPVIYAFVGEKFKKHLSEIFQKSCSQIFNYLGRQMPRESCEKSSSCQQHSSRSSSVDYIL
T5 sequence (P51685 whole entry A27G): as the sequence (P51685 whole entry) above, with A27G counted along it

Binder	binding result (human CCR4)	Kd (human CCR8) [nM]	binding by FACS (read-out not named) (murine CCR8)	binding by FACS (read-out not named) [1]	binding by FACS (read-out not named) (rat CCR8)
B1	no binding (tested: 5.0 ug/mL)	> 5	3600	24200	11000
B2	no binding (tested: 5.0 ug/mL)	0.216	24700	36900	105000
